The values that follow come from patent US20140127212A1 (AstraZeneca / MedImmune, published 2014).

B1: Antibody 2 scFv (scFv, V domains shown)
VH: QVQLVQSGAEVKKPGATVKLSCKVYGYIFTDYNIYWVRQAPGKGLEWMGLIDPDNGETFYAEKFQGRATMTADTSSDRAYMELTSLTFEDTATYYCATVSLRSAKGGYDYWGRGTLVTVSS
VL: QSVLTQPPSVSGAPGQRVTISCTGSSSNIGAGYDVHWYQQLPGTAPKLLIYDNFNRPSGVPDRFSGSKSGTSASLAIIGLQTEDEADYYCQSYDSSLSGSLFGTGTKLTVL
notes: Purified scFv
B2: Antibody 16 scFv (scFv, V domains shown)
VH: QVQLVQSGAEVKKPGATVKLSCKVYGYIFTDYNIYWVRQAPGKGLEWMGLIDPDNGETFYAEKFQGRATMTADTSSDRAYMELTSLTFEDTATYYCATVSLKSAKGGYDYWGRGTLVTVSS
VL: QSVLTQPPSVSGAPGQRVTISCTGSSSNIGAGYDVHWYQQLPGTAPKLLIYDNFNRPSGVPDRFSGSKSGTSASLAIIGLQTEDEADYYCQSYDSRHHHAPFGTGTKLTVL
notes: Purified scFv
B3: Antibody 24 scFv (scFv, V domains shown, not shown: small tags and cut ends)
VH: QVQLVQSGAEVKKPGATVKLSCKVYGYIFTDYNIYWVRQAPGKGLEWMGLIDPDNGETFYAEKFQGRATMTADTSSDRAYMELTSLTFEDTATYYCATVTLKTAKGGYDYWGRGTLVTVSS
VL: QSVLTQPPSVSGAPGQRVTISCTGSSSNIGAGYDVHWYQQLPGTAPKLLIYDNFNRPSGVPDRFSGSKSGTSASLAIIGLQTEDEADYYCQSYDSRNGYGGFGTGTKLTVL
notes: Purified scFv
B4: Antibody 9 scFv (scFv, V domains shown)
VH: QVQLVQSGAEVKKPGATVKLSCKVYGYIFTDYNIYWVRQAPGKGLEWMGLIDPDNGETFYAEKFQGRATMTADTSSDRAYMELTSLTFEDTATYYCATVTLRSAKGGYDYWGRGTLVTVSS
VL: QSVLTQPPSVSGAPGQRVTISCTGSSSNIGAGYDVHWYQQLPGTAPKLLIYDNFNRPSGVPDRFSGSKSGTSASLAIIGLQTEDEADYYCQSYDSPSSTSPFGTGTKLTVL
notes: Purified scFv
B5: Antibody 17 scFv (scFv, V domains shown)
VH: QVQLVQSGAEVKKPGATVKLSCKVYGYIFTDYNIYWVRQAPGKGLEWMGLIDPDNGETFYAEKFQGRATMTADTSSDRAYMELTSLTFEDTATYYCATVTLKSAKGGYDYWGRGTLVTVSS
VL: QSVLTQPPSVSGAPGQRVTISCTGSSSNIGAGYDVHWYQQLPGTAPKLLIYDNFNRPSGVPDRFSGSKSGTSASLAIIGLQTEDEADYYCQSYDSQSSTSPFGTGTKLTVL
notes: Purified scFv
B6: Antibody 5 scFv (scFv, V domains shown)
VH: QVQLVQSGAEVKKPGATVKLSCKVYGYIFTDYNIYWVRQAPGKGLEWMGLIDPDNGETFYAEKFQGRATMTADTSSDRAYMELTSLTFEDTATYYCATVMGKWIKGGYDYWGRGTLVTVSS
VL: QSVLTQPPSVSGAPGQRVTISCTGSSSNIGAGYDVHWYQQLPGTAPKLLIYDNFNRPSGVPDRFSGSKSGTSASLAIIGLQTEDEADYYCQSYDSTKHTSPFGTGTKLTVL
notes: Purified scFv
B7: Antibody 4 scFv (scFv, V domains shown)
VH: QVQLVQSGAEVKKPGATVKLSCKVYGYIFTDYNIYWVRQAPGKGLEWMGLIDPDNGETFYAEKFQGRATMTADTSSDRAYMELTSLTFEDTATYYCATVMGKWIKGGYDYWGRGTLVTVSS
VL: QSVLTQPPSVSGAPGQRVTISCTGSSSNIGAGYDVHWYQQLPGTAPKLLIYDNFNRPSGVPDRFSGSKSGTSASLAIIGLQTEDEADYYCQSYDSRGGHSPFGTGTKLTVL
notes: Purified scFv
B8: Antibody 23 scFv (scFv, V domains shown, not shown: small tags and cut ends)
VH: QVQLVQSGAEVKKPGATVKLSCKVYGYIFTDYNIYWVRQAPGKGLEWMGLIDPDNGETFYAEKFQGRATMTADTSSDRAYMELTSLTFEDTATYYCATVMGKWIKGGYDYWGRGTLVTVSS
VL: QSVLTQPPSVSGAPGQRVTISCTGSSSNIGAGYDVHWYQQLPGTAPKLLIYDNFNRPSGVPDRFSGSKSGTSASLAIIGLQTEDEADYYCQSYDSHHLYSSFGTGTKLTVL
notes: Purified scFv
B9: Antibody 7 scFv (scFv, V domains shown)
VH: QVQLVQSGAEVKKPGATVKLSCKVYGYIFTDYNIYWVRQAPGKGLEWMGLIDPDNGETFYAEKFQGRATMTADTSSDRAYMELTSLTFEDTATYYCATVTLKSAKGGYDYWGRGTLVTVSS
VL: QSVLTQPPSVSGAPGQRVTISCTGSSSNIGAGYDVHWYQQLPGTAPKLLIYDNFNRPSGVPDRFSGSKSGTSASLAIIGLQTEDEADYYCQSYDSDRRNSPFGTGTKLTVL
notes: Purified scFv
B10: Antibody 15 scFv (scFv, V domains shown)
VH: QVQLVQSGAEVKKPGATVKLSCKVYGYIFTDYNIYWVRQAPGKGLEWMGLIDPDNGETFYAEKFQGRATMTADTSSDRAYMELTSLTFEDTATYYCATVTLKTAKGGYDYWGRGTLVTVSS
VL: QSVLTQPPSVSGAPGQRVTISCTGSSSNIGAGYDVHWYQQLPGTAPKLLIYDNFNRPSGVPDRFSGSKSGTSASLAIIGLQTEDEADYYCQSYDSHKGYGGFGTGTKLTVL
notes: Purified scFv
B11: Antibody 14 scFv (scFv, V domains shown)
VH: QVQLVQSGAEVKKPGATVKLSCKVYGYIFTDYNIYWVRQAPGKGLEWMGLIDPDNGETFYAEKFQGRATMTADTSSDRAYMELTSLTFEDTATYYCATVMGKWIKGGYDYWGRGTLVTVSS
VL: QSVLTQPPSVSGAPGQRVTISCTGSSSNIGAGYDVHWYQQLPGTAPKLLIYDNFNRPSGVPDRFSGSKSGTSASLAIIGLQTEDEADYYCQSYDSHHRHSPFGTGTKLTVL
notes: Purified scFv
B12: Antibody 3 scFv (scFv, V domains shown)
VH: QVQLVQSGAEVKKPGATVKLSCKVYGYIFTDYNIYWVRQAPGKGLEWMGLIDPDNGETFYAEKFQGRATMTADTSSDRAYMELTSLTFEDTATYYCATVMGKWIKGGYDYWGRGTLVTVSS
VL: QSVLTQPPSVSGAPGQRVTISCTGSSSNIGAGYDVHWYQQLPGTAPKLLIYDNFNRPSGVPDRFSGSKSGTSASLAIIGLQTEDEADYYCQSYDSTFNHAPFGTGTKLTVL
notes: Purified scFv
B13: Antibody 8 scFv (scFv, V domains shown)
VH: QVQLVQSGAEVKKPGATVKLSCKVYGYIFTDYNIYWVRQAPGKGLEWMGLIDPDNGETFYAEKFQGRATMTADTSSDRAYMELTSLTFEDTATYYCATVLGRWIKGGYDYWGRGTLVTVSS
VL: QSVLTQPPSVSGAPGQRVTISCTGSSSNIGAGYDVHWYQQLPGTAPKLLIYDNFNRPSGVPDRFSGSKSGTSASLAIIGLQTEDEADYYCQSYDSPTHTSPFGTGTKLTVL
notes: Purified scFv
B14: Antibody 12 scFv (scFv, V domains shown)
VH: QVQLVQSGAEVKKPGATVKLSCKVYGYIFTDYNIYWVRQAPGKGLEWMGLIDPDNGETFYAEKFQGRATMTADTSSDRAYMELTSLTFEDTATYYCATVMGKWIKGGYDYWGRGTLVTVSS
VL: QSVLTQPPSVSGAPGQRVTISCTGSSSNIGAGYDVHWYQQLPGTAPKLLIYDNFNRPSGVPDRFSGSKSGTSASLAIIGLQTEDEADYYCQSYDSSIDHSPFGTGTKLTVL
notes: Purified scFv
B15: Antibody 18 scFv (scFv, V domains shown)
VH: QVQLVQSGAEVKKPGATVKLSCKVYGYIFTDYNIYWVRQAPGKGLEWMGLIDPDNGETFYAEKFQGRATMTADTSSDRAYMELTSLTFEDTATYYCATVLLRSAKGGYDYWGRGTLVTVSS
VL: QSVLTQPPSVSGAPGQRVTISCTGSSSNIGAGYDVHWYQQLPGTAPKLLIYDNFNRPSGVPDRFSGSKSGTSASLAIIGLQTEDEADYYCQSYDSHLQLSPFGTGTKLTVL
notes: Purified scFv
B16: Antibody 13 scFv (scFv, V domains shown)
VH: QVQLVQSGAEVKKPGATVKLSCKVYGYIFTDYNIYWVRQAPGKGLEWMGLIDPDNGETFYAEKFQGRATMTADTSSDRAYMELTSLTFEDTATYYCATVMGKWIKGGYDYWGRGTLVTVSS
VL: QSVLTQPPSVSGAPGQRVTISCTGSSSNIGAGYDVHWYQQLPGTAPKLLIYDNFNRPSGVPDRFSGSKSGTSASLAIIGLQTEDEADYYCQSYDSNILYSPFGTGTKLTVL
notes: Purified scFv
B17: Antibody 11 scFv (scFv, V domains shown)
VH: QVQLVQSGAEVKKPGATVKLSCKVYGYIFTDYNIYWVRQAPGKGLEWMGLIDPDNGETFYAEKFQGRATMTADTSSDRAYMELTSLTFEDTATYYCATVMGKWIKGGYDYWGRGTLVTVSS
VL: QSVLTQPPSVSGAPGQRVTISCTGSSSNIGAGYDVHWYQQLPGTAPKLLIYDNFNRPSGVPDRFSGSKSGTSASLAIIGLQTEDEADYYCQSYDSPTLTSPFGTGTKLTVL
notes: Purified scFv
B18: Antibody 21 scFv (scFv, V domains shown)
VH: QVQLVQSGAEVKKPGATVKLSCKVYGYIFTDYNIYWVRQAPGKGLEWMGLIDPDNGETFYAEKFQGRATMTADTSSDRAYMELTSLTFEDTATYYCATVTLKSAKGGYDYWGRGTLVTVSS
VL: QSVLTQPPSVSGAPGQRVTISCTGSSSNIGAGYDVHWYQQLPGTAPKLLIYDNFNRPSGVPDRFSGSKSGTSASLAIIGLQTEDEADYYCQSYDSSSQLSPFGTGTKLTVL
notes: Purified scFv
B19: Antibody 10 scFv (scFv, V domains shown)
VH: QVQLVQSGAEVKKPGATVKLSCKVYGYIFTDYNIYWVRQAPGKGLEWMGLIDPDNGETFYAEKFQGRATMTADTSSDRAYMELTSLTFEDTATYYCATVSLRAAKGGYDYWGRGTLVTVSS
VL: QSVLTQPPSVSGAPGQRVTISCTGSSSNIGAGYDVHWYQQLPGTAPKLLIYDNFNRPSGVPDRFSGSKSGTSASLAIIGLQTEDEADYYCQSYDSEQELAPFGTGTKLTVL
notes: Purified scFv
B20: Antibody 22 scFv (scFv, V domains shown)
VH: QVQLVQSGAEVKKPGATVKLSCKVYGYIFTDYNIYWVRQAPGKGLEWMGLIDPDNGETFYAEKFQGRATMTADTSSDRAYMELTSLTFEDTATYYCATVTLKSAKGGYDYWGRGTLVTVSS
VL: QSVLTQPPSVSGAPGQRVTISCTGSSSNIGAGYDVHWYQQLPGTAPKLLIYDNFNRPSGVPDRFSGSKSGTSASLAIIGLQTEDEADYYCQSYDSSGGYAPFGTGTKLTVL
notes: Purified scFv
B21: Antibody 6 scFv (scFv, V domains shown)
VH: QVQLVQSGAEVKKPGATVKLSCKVYGYIFTDYNIYWVRQAPGKGLEWMGLIDPDNGETFYAEKFQGRATMTADTSSDRAYMELTSLTFEDTATYYCATVMGKWIKGGYDYWGRGTLVTVSS
VL: QSVLTQPPSVSGAPGQRVTISCTGSSSNIGAGYDVHWYQQLPGTAPKLLIYDNFNRPSGVPDRFSGSKSGTSASLAIIGLQTEDEADYYCQSYDSTMRHGPFGTGTKLTVL
notes: Purified scFv

T1 sequence (heavy, as listed by the source limits assumed, chain 1 of 2): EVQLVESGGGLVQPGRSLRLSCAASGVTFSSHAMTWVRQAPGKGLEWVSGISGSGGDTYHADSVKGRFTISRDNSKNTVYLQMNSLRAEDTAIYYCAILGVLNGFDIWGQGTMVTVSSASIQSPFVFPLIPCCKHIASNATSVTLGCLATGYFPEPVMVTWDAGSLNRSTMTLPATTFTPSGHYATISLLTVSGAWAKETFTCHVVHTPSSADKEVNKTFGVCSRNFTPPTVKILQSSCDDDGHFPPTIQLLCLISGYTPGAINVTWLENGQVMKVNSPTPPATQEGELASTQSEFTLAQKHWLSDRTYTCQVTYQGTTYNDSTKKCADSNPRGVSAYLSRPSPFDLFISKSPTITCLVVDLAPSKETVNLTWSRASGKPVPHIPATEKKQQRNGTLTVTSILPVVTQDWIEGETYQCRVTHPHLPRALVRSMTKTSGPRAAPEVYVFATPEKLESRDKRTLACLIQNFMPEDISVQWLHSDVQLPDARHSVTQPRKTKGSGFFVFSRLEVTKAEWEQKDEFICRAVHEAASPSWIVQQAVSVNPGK
T1 sequence (light, as listed by the source limits assumed, chain 2 of 2): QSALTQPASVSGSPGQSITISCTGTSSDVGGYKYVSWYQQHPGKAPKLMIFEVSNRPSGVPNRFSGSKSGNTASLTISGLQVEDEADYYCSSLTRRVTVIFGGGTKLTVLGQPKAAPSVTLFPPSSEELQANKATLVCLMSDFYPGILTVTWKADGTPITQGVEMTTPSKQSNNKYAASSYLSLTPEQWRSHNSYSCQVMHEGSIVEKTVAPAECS

This experiment concerns the target T1, cynomolgus IgE (recombinant chimaeric D12 variable region and cynomolgus IgE constant region) (cynomolgus monkey (constant region); …).
T1 construct: The entries may hold a leader peptide; also called cyno IgE; cynomolgus monkey IgE
In words: HTRF competition; scFv titrated vs Eu-cryptate cynomolgus IgE binding to human FcεRI-Fc; geomean.
As for B1, the IC50 is 317 nM.
The value for B2 was 63 nM; that for B3 was 111 nM.
As for B4, the figure is 132 nM.
On to B5, for which the IC50 turned out to be 109 nM.
As for B6, the figure is 6 nM.
As for B7, the figure is 5 nM; as for B8, 6 nM.
The value for B9 was 186 nM; that for B10 was 172 nM.
Turning to B11, the IC50 amounted to 15 nM.
As for B12, the figure is 18 nM; as for B13, 12 nM.
As for B14, the figure is 7 nM; as for B15, 110 nM.
As for B16, the figure is 7 nM; as for B17, 7 nM.
Regarding B18, the IC50 was 65 nM.
Take B19: the IC50 was 116 nM.
As for B20, the figure is 68 nM; as for B21, 11 nM.
